According to publication PMC3387196:

Target: Nedd4 (UniProt P46935)
Assay: anti-FLAG co-IP, Ala mutants
Settings: reference: wild type; sites T1859,S1962

binding against the reference: weaker
Substance: Kif26b (from UniProt Q7TNC6) T1859A/S1962A
